Measurements as given in patent publication US6641997B1, “Assays for screening compounds which interact with cation channel proteins, mutant prokaryotic cation channel proteins, and uses thereof” (The Rockefeller University, priority 1998, dated 2003).

Experiments:
[1] = biological target: T1, mutant kcsa K+ channel (Q58A, T61S, R64D) (Streptomyces lividans, UniProt P0A334, P2A/Q58A/R64D/T61S); assay: Competition binding assay: unlabeled toxin against labeled Agitoxin2 on mutant kcsa K+ channel resin; conditions: for Kd: labeled toxin 0.06 μM, Kdhot 0.62 μM, FIG. 11B, read-out: competing toxin dissociation constant Kdcold; for decrease of affinity caused by the toxin mutation: relative to wild type agitoxin2
T1 construct: made in house; host or cells: E. coli XL-1 Blue
T1 sequence (P0A334 1-158 P2A/Q58A/T61S/R64D limits assumed): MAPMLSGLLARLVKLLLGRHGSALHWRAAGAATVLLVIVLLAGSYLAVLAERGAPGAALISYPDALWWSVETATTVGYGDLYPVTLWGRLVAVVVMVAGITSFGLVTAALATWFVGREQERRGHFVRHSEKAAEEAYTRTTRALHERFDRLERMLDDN
Source text: (§1) Three mutations (Q58A, T61S, R64D) were introduced into the kcsa K^+ channel gene to modify its pore region sequence using PCR mutagenesis and confirmed by DNA sequencing. The gene also contained a mutation at the second residue (P2A) to introduce an ncol restriction endonuclease site and it was lacking the last two carboxyl terminal residues (both Arg) to avoid proteolysis during the protein preparation. This gene was cloned into the pQE60 vector for expression with a carboxyl terminal thrombin and hexahistidine fusion. Channel protein was expressed in XL-1 Blue strain of E. coli (Stratagene) by induction with […] at a concentration of 1.0 mM. Three hours following induction bacteria were sonicated in 50 mM Tris buffer (7.5), 100 mM KCl, 10 mM Mg2SO4, 25 mg DNAse 1, 250 mM sucrose, in addition to pepstatin, leupeptin, and PMSF. The channel was extracted in the same solution containing 40 mM decylmaltoside (Anatrace) at room temperature. Following centrifugation the supernatant was bound to cobalt resin (Talon) at a protein to resin ratio that will saturate the resin. The resin was washed, and detergent concentration was lowered to 10.0 mM. One mL columns were prepared. The control resin (no channel) was handled in the same manner. The resin preparation was the same for mass spectrometry and binding studies.
(§2) Wild type and mutant agitoxin2 were prepared (10). Tritiated N-ethylmaleimide (NEN Life Sciences) was conjugated to agitoxin2 D20C (14). Binding was performed in a 300 μL volume containing 50 mM Tris (7.5), 100 mM KCl, 10 mM declymaltoside, and 0.3 μL of cobalt resin saturated with the mutant kcsa K^+ channel for 30 minutes at room temperature. Following brief centrifugation the supernatant was removed, resin was applied to a filter, rinsed briefly with ice cold buffer, and then counted in a scintillation counter. All binding measurements were made with a paired control containing a saturating concentration (200 times KD) of unlabeled wild type agitoxin2 to determine nonspecific binding. The competition assay was carried out under the same conditions. Labeled Agitoxin2 at 0.06 μM was always present and unlabeled toxin was added to compete with bound labeled toxin.
as §2, with “17. Wild” for “Wild”, “Kd)” for “KD)”

[2] = biological target: T1, mutant kcsa K+ channel (Q58A, T61S, R64D); assay: Mutant kcsa K+ channel cobalt column screen of scorpion venom, eluate analysed by MALDI-TOF mass spectrometry; assay type: binding; conditions: 40 mg Leiurus quinquestriatus hebraeus venom on 1 mL column, imidazole elution
Source text: FIG. 10. Mass Spectra of scorpion toxins before and after channel column purification MALDI-TOF mass spectra of venom before purification (A) and after elution from a cobalt column in the absence (B) and presence (C) of attached mutant kesa K^+ channel. The accuracy of the mass measurements (±0.3 Da) permitted identification of most of the major peaks in the mass spectra searched from databases of known toxins of the Leiurus quinquestratus hebraeus scorpion (D). The kesa-binding component labeled * could not be assigned to a known scorpion toxin. The component labeled X (4193.0 Da) binds nonspecifically to the column and was not identified. MALDI_MS was performed with the MALDI matrix 4-hydroxy-α-cyano-cinnamic acid (16 of Example II).
as §1, with “Following centrifugation the supernatant was bound to cobalt resin (Talon) at a protein to resin ratio that will saturate the resin. The resin was washed, and detergent concentration was lowered to 10.0 mM. One mL columns were prepared. The control resin (no channel) was handled in the same manner. The resin preparation was the same for mass spectrometry and binding studies.” left out
Guided by knowledge of the toxin receptor on the Shaker K^+ channel, set forth in SEQ ID NO:4, three point mutations were introduced into the kcsa K^+ channel (SEQ ID NO: 1) that should render it sensitive to scorpion toxins (FIG. 9). […] The eluate was analyzed with MALDI-TOF mass spectrometry, focusing on the low mass range appropriate for scorpion toxins (about 4000 Da). […]

N30A: Agitoxin2 mutant, Asn 30 substituted by alanine
Kd [1]: 27 µM | decrease of affinity caused by the toxin mutation [1]: 45 fold

K27A: Agitoxin2 mutant, Lys 27 substituted by alanine
Kd [1]: 81 µM | decrease of affinity caused by the toxin mutation [1]: 130 fold

chlorotoxin
binding to the channel column (mass peak in the eluate) [2]: did not bind

charybdotoxin
binding to the channel column (mass peak in the eluate) [2]: dramatic enhancement of specific peaks

agitoxin2
Kd [1]: 0.62 µM | binding to the channel column (mass peak in the eluate) [2]: dramatic enhancement of specific peaks
